In the RNAGym collection of RNA variant scans (doi:10.7554/elife.80360) one finds self-cleavage data, which are given here for 32 variants.

B1: HDV Ribozyme (parent)
chain: GGCCGGCAUGGUCCCAGCCUCCUCGCUGGCGCCGGCUGGGCAACAUUCCGAGGGGACCGUCCCCUCGGUAAUGGCGAAUGGGACCCA

In the data set the parent is B1. In words: self-cleavage, relative activity (ratio to wild type); higher = more cleavage; co-transcriptional.
GGCCGGCAUGGUCCCAGCCUCGUCGCUGGCGCCGGCUGGGCAACAUUCCGAGGGGACCGUCCCCUCGGUAAUGGCGAAUGGGACCGA: the self-cleavage was 0.0779.

As for GGCCGGCAUGGUCCCAGCCUCGUCGCUGGCGCCGGCUGGGCAACAUUCCGAGGGGACCGUGCCCUCGGUAAUGGCGAAUGGGACCCA, the self-cleavage was 0.104.

Take GGCCGGCAUGGUCCCAGCCUCGUCGCUGGCGCCGGCUGGGCAACAUUCCGAGGGGACCGUUCCCUCGGUAAUGGCGAAUGGGACCCA: the self-cleavage is 0.0723.

On to GGCCGGCAUGGUCCCAGCCUCGUCGCUGGCGCCGGCUGGGCAACAUUCCGAGGGGACCGUCCCCUCGGUAAUGGCGAAUGGGACCCC, for which the self-cleavage was found to be 0.0866.

Regarding GGCCGGCAUGGUCCCAGCCUCGUCGCUGGCGCCGGCUGGGCAACAUUCCGAGGGGACCGUCCCCUCGGUAAUGGCGAAUGGGACCCU, the self-cleavage was found to be 0.141.

As to GGCCGGCAUGGUCCCAGCCUCGUCGCUGGCGCCGGCUGGGCAACAUUCAGAGGGGACCGUCCCCUCGGUAAUGGCGAAUGGGACCCA, the self-cleavage was 0.131.

Take GGCCGGCAUGGUCCCAGCCUCGUCGCUGGCGCCGGCUGGGCAACAUUCCGAGGGGACCGUCCCCUCGGUAGUGGCGAAUGGGACCCA: the self-cleavage amounted to 0.0573.

Consider GGCCGGCAUGGUCCCAGCCUCGUCGCUGGCGCCGGCUGGGCAACAUUCCGAGGGGACCGUCCCCUCGGUACUGGCGAAUGGGACCCA, for which the self-cleavage is 0.151.

For GGCCGGCAUGGUCCCAGCCUCGUCGCUGGCGCCGGAUGGGCAACAUUCCGAGGGGACCGUCCCCUCGGUAAUGGCGAAUGGGACCCA, the self-cleavage turned out to be 0.0773.

Take GGCCGGCAUGGUCCCAGCCUCGUCGCUGGCGCCGGGUGGGCAACAUUCCGAGGGGACCGUCCCCUCGGUAAUGGCGAAUGGGACCCA: the self-cleavage amounted to 0.123.

As to GGCCGGCAUGGUCCCAGCCUCGUCGCUGGCGGCGGCUGGGCAACAUUCCGAGGGGACCGUCCCCUCGGUAAUGGCGAAUGGGACCCA, the self-cleavage is 0.

Regarding GGCCGGCAUGGUCCCAGCCUCGUCGCUGGCGACGGCUGGGCAACAUUCCGAGGGGACCGUCCCCUCGGUAAUGGCGAAUGGGACCCA, the self-cleavage was 0.

On to GGCCGGCAUGGUCCCAGCCUCGUCGCUGGCGUCGGCUGGGCAACAUUCCGAGGGGACCGUCCCCUCGGUAAUGGCGAAUGGGACCCA, for which the self-cleavage is 0.0707.

GGCCGGCAUGGUCCCAGCCUCGUCGCUGGCGCCGGCUGGGCAAGAUUCCGAGGGGACCGUCCCCUCGGUAAUGGCGAAUGGGACCCA: the self-cleavage is 0.0437.

For the variant GGCCGGCAUGGUCCCAGCCUCGUCGCUGGCGCCGGCUGGGCAAUAUUCCGAGGGGACCGUCCCCUCGGUAAUGGCGAAUGGGACCCA, the self-cleavage turned out to be 0.0361.

On to GGCCGGCAUGGUCCCAGCCUCGUCGCUGGCGCCGGCUGGGCAACAUUCCGAGGGGCCCGUCCCCUCGGUAAUGGCGAAUGGGACCCA, for which the self-cleavage is 0.

In the case of GGCCGGCAUGGUCCCAGCCUCGUCGCUGGCGCCGGCUGGGCAACAUUCCGAGGGGUCCGUCCCCUCGGUAAUGGCGAAUGGGACCCA, the self-cleavage came to 0.133.

Consider GGCCGGCAUGGUCCCAGCCUCGUCGCUGGCGCCGGCUGGGCAACAUUCCGAGGGGACCGUCCCCUCGGUAAUGGCGAAUGGGAACCA, for which the self-cleavage turned out to be 0.0369.

Consider GGCCGGCAUGGUCCCAGCCUCGUCGCUGGCGCCGGCUGGGCAACAUUCCGAGGGGACCGUCCCCUCGGUAAUGGCGAAUGGGAGCCA, for which the self-cleavage was found to be 0.0923.

Regarding GGCCGGCAUGGUCCCAGCCUCGUCGCUGGCGCCGGCUGGGCAACAUUCCGAGGGGACCGUCCCCUCGGUAAUGGCGACUGGGACCCA, the self-cleavage is 0.131.

Turning to GGCCGGCAUGGUCCCAGCCUCGUCGCUGGCGCCGGCUGGGCAACAUUCCGAGGGGACCGUCCCCUCGGUAAUGGCGAGUGGGACCCA, the self-cleavage was determined as 0.141.

In the case of GGCCGGCAUGGUCCCAGCCUCGUCGCUGGCGCCGGCUGGGCAACAUUCCGGGGGGACCGUCCCCUCGGUAAUGGCGAAUGGGACCCA, the self-cleavage came out at 0.104.

As to GGCCGGCAUGGUCCCAGCCUCGUCGCUGGCGCCGGCUGGGCAACAUUCCGCGGGGACCGUCCCCUCGGUAAUGGCGAAUGGGACCCA, the self-cleavage is 0.116.

As for GGCCGGCAUGGUCCCAGCCUCGUCGCUGGUGCCGGCUGGGCAACAUUCCGAGGGGACCGUCCCCUCGGUAAUGGCGAAUGGGACCCA, the self-cleavage turned out to be 0.0723.

For GGCCGGCAUGGUCCCAGCCUCGUCGCUGGAGCCGGCUGGGCAACAUUCCGAGGGGACCGUCCCCUCGGUAAUGGCGAAUGGGACCCA, the self-cleavage amounted to 0.0652.

As to GGCCGGCAUGGUCCCAGCCUCGUCGCUGGGGCCGGCUGGGCAACAUUCCGAGGGGACCGUCCCCUCGGUAAUGGCGAAUGGGACCCA, the self-cleavage is 0.0437.

GGCCGGCAUGGUCCCAGCCUCGUCGCUGUCGCCGGCUGGGCAACAUUCCGAGGGGACCGUCCCCUCGGUAAUGGCGAAUGGGACCCA: the self-cleavage was 0.217.

Regarding GGCCGGCAUGGUCCCAGCCUCGUCGCUGGCGCCGGCUGCGCAACAUUCCGAGGGGACCGUCCCCUCGGUAAUGGCGAAUGGGACCCA, the self-cleavage was 0.0554.

As for GGCCGGCAUGGUCCCAGCCUCGUCGCUGGCGCCGGCUGGGUAACAUUCCGAGGGGACCGUCCCCUCGGUAAUGGCGAAUGGGACCCA, the self-cleavage came to 0.0656.

Turning to GGCCGGCAUGGUCCCAGCCUCGUCGCUGGCGCCGGCUGGGCAACAUUCCGAGGGGAACGUCCCCUCGGUAAUGGCGAAUGGGACCCA, the self-cleavage stood at 0.0652.

In the case of GGCCGGCAUGGUCCCAGCCUCGUCGCUGGCGCCGGCUGGGCAACAUUCCGAGGGGAUCGUCCCCUCGGUAAUGGCGAAUGGGACCCA, the self-cleavage came out at 0.089.

Regarding GGCCGGCAUGGUCCCAGCCUCGUCGCUGGCGCCGGCUGGGCAACAUUCCGAGGGGAGCGUCCCCUCGGUAAUGGCGAAUGGGACCCA, the self-cleavage was 0.219.
